Measured values reported in patent US20170204167A1.

Key:
[1] = target: HA of H7 pseudovirus (A/chicken/Italy/99) in which the glycosylation site (Asn-38) was removed (influenza A virus H7 A/chicken/Italy/99); test: cell-based or functional assay
[2] = target: HA of H8N4 A/Alberta/357/84 (influenza A virus H8N4 A/Alberta/357/84); test: ELISA on recombinant or purified HA
[3] = target: HA of H6N5 A/shearwater/Australia/1/72 (influenza A virus H6N5 A/shearwater/Australia/1/72); test: ELISA on recombinant or purified HA
[4] = target: HA of H2N2 A/Singapore/1/57 (influenza A virus H2N2 A/Singapore/1/57) (UniProt Q67333); test: ELISA on recombinant or purified HA
[5] = target: HA of H9 A/HK/1073/99 (influenza A virus H9N2 A/Hong Kong/1073/99); test: ELISA on recombinant or purified HA
[6] = target: HA of H13N6 A/gull/Maryland/704/77 (ELISA antigen) (influenza A virus H13N6 A/gull/Maryland/704/77) (UniProt P13103); test: ELISA on recombinant or purified HA
[7] = target: HA of H5N1 A/Viet Nam/1203/04 (influenza A virus H5N1 A/Viet Nam/1203/04); test: ELISA on recombinant or purified HA
[8] = target: HA of H10N4 A/mink/Sweded/3900/84 (influenza A virus H10N4 A/mink/Sweded/3900/84); test: ELISA on recombinant or purified HA
[9] = target: HA of H3N2 A/Wyoming/3/03 (influenza A virus H3N2 A/Wyoming/3/03); test: ELISA on recombinant or purified HA
[10] = target: HA of H1N1 A/Brisbane/59/07 (influenza A virus H1N1 A/Brisbane/59/07); test: ELISA on recombinant or purified HA
[11] = target: HA of H5N1 A/Viet Nam/1/05 (influenza A virus H5N1 A/Viet Nam/1/05); test: ELISA on recombinant or purified HA
[12] = target: HA of H3N2 A/New York/55/04 (influenza A virus H3N2 A/New York/55/04); test: ELISA on recombinant or purified HA
[13] = target: HA of H4N6 A/duck/Czechoslovakia/56 (ELISA antigen) (influenza A virus H4N6 A/duck/Czechoslovakia/56) (UniProt P19696); test: ELISA on recombinant or purified HA
[14] = target: HA of H3N2 A/Brisbane/10/07 (influenza A virus H3N2 A/Brisbane/10/07); test: ELISA on recombinant or purified HA
[15] = target: HA of H7N3 A/Canada/444/04 (influenza A virus H7N3 A/Canada/444/04); test: ELISA on recombinant or purified HA

In the case of CR6261 (antibody), the neutralization of H7 pseudovirus, IC50 [1] is reported as > 50 µg/mL.

F10 (antibody) was tested, and the neutralization of H7 pseudovirus, IC50 [1] was > 50 µg/mL.

In the case of ctr (control antibody of Table 8), the EC50 [2] is reported as > 20 µg/mL, the EC50 [3] is reported as > 20 µg/mL and the EC50 [4] is reported as > 20 µg/mL. For the same substance, the EC50 [5] was > 20 µg/mL, the EC50 [6] was > 20 µg/mL and the EC50 [7] was > 20 µg/mL. For the same substance, the EC50 [8] was > 20 µg/mL, the EC50 [9] was > 20 µg/mL and the EC50 [10] was > 20 µg/mL. For the same substance, the EC50 [11] was > 20 µg/mL, the EC50 [12] was > 20 µg/mL and the EC50 [13] was > 20 µg/mL. The EC50 [14] was > 20 µg/mL and the EC50 [15] was > 20 µg/mL.
